The values that follow come from article doi:10.1101/2024.08.15.608188, “Myosin forces elicit an F-actin structural landscape that mediates mechanosensitive protein recognition” (bioRxiv, 2024).

This series concerns the molecule itself. Kind of series: cryo-EM structure; dual motor condition (surface-anchored myosin-5 and myosin-6, 1 μM ATP) on holey carbon grids; 0.6 μM F-actin, 1 μM α-catenin ABD applied in Motility Buffer (20 mM MOPS pH 7.4, 5 mM MgCl2, 0.1 mM EGTA, 1 mM DTT) for 30 s, 25 °C; sub-saturating α-catenin; consensus and 3DVA-sorted reconstructions.

B1: C-terminal actin-binding domain (ABD) of human α-catenin (AA 664-906) (domain or fragment, UniProt P35221 664-906, looked up)
chain: IAGQSARAIMAQLPQEQKAKIAEQVASFQEEKSKLDAEVSKWDDSGNDIIVLAKQMCMIMMEMTDFTRGKGPLKNTSDVISAAKKIAEAGSRMDKLGRTIADHCPDSACKQDLLAYLQRIALYCHQLNICSKVKAEVQNLGGELVVSGVDSAMSLIQAAKNLMNAVVQTVKASYVASTKYQKSQGMASLNLPAVSWKMKAPEKKPLVKREKQDETQTKIKRASQKKHVNPVQALSEFKAMDSI
notes: Tags were removed with TEV protease; also called α-catenin ABD; αE-catenin ABD; source: E. coli Rosetta2(DE3), purified (Ni-NTA, TEV cleavage, anion exchange, size exclusion); not shown: 6XHis, N-terminal, cleaved; strep tag, N-terminal, cleaved
Regarding B1, the binding result is “binds”.
